Reference: the supplement of paper PMC9170038

System: MS2 coat protein
Test: apparent KD of MS2 coat protein; designed switch direction (-1 OFF switch, 1 ON switch): 1; higher = weaker reporter binding
In short: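 For each design, the apparent KD is the median over clusters of curves fitted to normalised cluster fluorescence. Clusters held RNA switches with common flanks, transcribed on Illumina chips by stalled E. coli RNA polymerase. These were titrated with SNAP-549-labelled MS2 coat protein, doubling from 0.7 or 1.5 nM to 3 µM, without input, with 200 uM small-molecule ligand, or with an oligonucleotide input.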

[1] = Eterna round: R95, input ligand: FMN 200 uM
[2] = Eterna round: R95, input ligand: microRNA oligo, concentration not stated
[3] = Eterna round: R95, input ligand: none
[4] = input ligand: microRNA oligo, concentration not stated

| Sequence | apparent KD of MS2 coat protein [1] [nM] | apparent KD of MS2 coat protein [2] [nM] | apparent KD of MS2 coat protein [3] [nM] | apparent KD of MS2 coat protein (input ligand: FMN 200 uM) [nM] | apparent KD of MS2 coat protein [4] [nM] | apparent KD of MS2 coat protein (input ligand: none) [nM] |
| --- | --- | --- | --- | --- | --- | --- |
| GGAGCCUGCACUGAGGAUAUUCAUAGUGUAACAUGAGGAUCACCCAUGUGUCGCCGUAGCGACUGGGAGAAGGCAGUGCGGCUCG [JL-ss2-3.06 ViennaUCT mod] (puzzle: Same State 2) | 38.4 | 180 | 325 | – | – | – |
| GGAGCCUGCACUGAGGAUAUUCAUAUUUAAACAUGAGGAUCACCCAUGUAGGCCAGAAGGCCUUGGGAGAAGGCAGGUCGGCUCG [salish99_ss2_r3_083] (puzzle: Same State 2) | 35.3 | 372 | 780 | – | – | – |
| GGAGGACAUGAGGAUCACCCAUGUGGAUGAUCGCUAGGAUAUGCGUAAAGGAGGAGUGGUGCAGAAGGAGUGGGAU [JR_SS1_Sub050] (puzzle: Same State 1) | – | 261 | – | – | – | – |
| GGAGGAUGAGCGUAGGAUAUAGGAGGAGUGACAUGAGGAUCACCCAUGUGGUAGGAGGGAGGGUACUAGAAGGACGAGGAAGAGG [JR_SS2_Sub070] (puzzle: Same State 2) | 54.6 | 64.5 | 74.5 | – | – | – |
| GGCACAGCGUGAGGAUAUCGGUACGCACGUAGUCGAGAAGGUACCUGAAAUGGUACACAUGAGGAUCACCCAUGUGACUGGGCA [Eternabot solution 14] (Eterna round: R96, puzzle: Same State NG 1) | – | – | – | 40.7 | 27.1 | 41.6 |
| GGCAGGUGCAGGCUUGCUUGCACCUGGAAACAUGAGGAUCACCCAUGUUUGGGACAAGCUUUGCUCUUCGUCUUUUC [JL ViennaUCT Isusreraar mod 5] (puzzle: Sensor for hsa-mir-208a) | 43.7 | 55.1 | 54.2 | – | – | – |
| GGCCUCUGUCAAGGAUAUGCUACCGUUUCGGUAGCAGAAGGUGAUCACAUGAGGAUCACCCAUGUUUAGGCCCUCUGGCCCGCC (Eterna round: R96, puzzle: Same State NG 1) | – | – | – | 114 | 330 | 138 |
| GGCCUCUGUCAAGGAUAUGCUACCGUUUCGGUAGCAGAAGGUGAUCACAUGCGGGUCACCCAUGUUUAGGCCCUCUGGCCCGCC (Eterna round: R96, puzzle: Same State NG 1) | – | – | – | 19.1 | 10.2 | 18.6 |
| GGCUGCAAUUAUGAGGAUAUGUUCGGAUGAACAUGAGGAUCACCCAUGUGGCGAUAGCUAUCUGUGCAGAAGGUGUAGUGGUAGC [Edlexete] (Eterna round: R96, puzzle: Same State 2) | – | – | – | 57.9 | 90.7 | 186 |
| GGGAAGAGGGACAAGGAUAUGUCAAAAGAGACAUGAGGAUCACCCAUGUGGAGGUUGGAGCAGAGACAGAAGGUGUACGGAGAGA [JR_SS2_Sub009] (puzzle: Same State 2) | 69.7 | 63 | 152 | – | – | – |
| GGGCCAGCCUGUGCUGGGCUUUAGCAUGCACAUGAGGAUCACCCAUGUCGUGUACAUGCUUUUUGCUCGUCUUUAAA [Photon Torp-08] (puzzle: Sensor for hsa-mir-208a) | 80.2 | 17.4 | 84.1 | – | – | – |
| GGGCCAGCUUUUGCUGGGCCUUCGCUUGCACAUGAGGAUCACCCAUGUCGUGUACACGCUUCCUGCCCGUCUUUUUU [Photon Torp-18] (puzzle: Sensor for hsa-mir-208a) | 21.2 | 13.6 | 21.8 | – | – | – |
| GGUAAACAUGAGGAUCACCCAUGUAAUAUAAUGGGAGGAUAUCUGAAUUAAUUAAAUUAAGGAGAAGGCCUAAUGU [Mat - Same State 1 - Mod of Eli - D50] (puzzle: Same State 1) | 65.5 | 462 | 410 | – | – | – |
| GGUAAGAAUUAAGGAUAUUGAAUACAUAUGUUUAACAUGAGGAUCACCCAUGUGGGUUGCGGUGUCGAGAAGGUAAAUUAAUAG [Mat - same State NG 2 - JL mod - D100] (Eterna round: R96, puzzle: Same State NG 2) | – | – | – | 262 | 166 | 305 |
| GGUAUCGACACAGGAUAUGCUAUCCUUUGGGUAGCAGAAGGGUGAACAUGAGGAUCACCCAUGUAGGUGCCAGGGCGUGAGCCC [JL SSNG1 1.79] (Eterna round: R96, puzzle: Same State NG 1) | – | – | – | 368 | 94.1 | 787 |
| GGUAUCGGCACAGGAUAUGCUAUCCUUUGGGUAGCAGAAGGGUGGACAUGAGGAUCACCCAUGUGGGUGCCAGGGCGUGAGCCC [JL SSNG1 1.85] (Eterna round: R96, puzzle: Same State NG 1) | – | – | – | 912 | 363 | 907 |
| GGUCCAGCCUGAGCUGGACAAAAGCAUGUACAUGAGGAUCACCCAUGUCAUGUACAAGCUUUUUGCUCGUCAUAAAU [Mat - hsa-mir-208a - 96] (Eterna round: R96, puzzle: Sensor for hsa-mir-208a) | – | – | – | 573 | 16.3 | 435 |
| GGUCCAGCCUGAGCUGGACAAAAGCAUGUACAUGAGGAUCACCCAUGUCAUGUACAAGCUUUUUGCUCGUCAUAAAU [Mat - hsa-mir-208a - 96] (puzzle: Sensor for hsa-mir-208a) | 702 | 13.1 | 668 | – | – | – |
| GGUCCAGCCUGAGCUGGACCACAGCAUGUACAUGAGGAUCACCCAUGUCAUGUACAAGCUUUUUGUUUAAAAUAAAA [Sensorship 13 - Jieux - Sensor for hsa-mir-208a] (puzzle: Sensor for hsa-mir-208a) | 261 | 30.5 | 209 | – | – | – |
| GGUCGGACUCAACAUGAGGAUCACCCAUGUGCGGAAACGCCAUAGGAUAUCUGUCCGAAAAGGUCAGAGAAGGGUGAACCGACC [Fiskers NG3ss - 66] (Eterna round: R96, puzzle: Same State NG 3) | – | – | – | 435 | 263 | 471 |
| GGUGAGAGAGUCAAGGAUAUGAAAGGAGAGACAUGAGGAUCACCCAUGUAAGAGAGAGAGGAGAGUUAGAAGGUGAAGAGAGUGG [Altered State 2-24 - Jieux - Same State 2] (puzzle: Same State 2) | 42.7 | 39.5 | 64.7 | – | – | – |
| GGUGCCAAAUAAGCCUACAUGAGGAUCACCCAUGUAUGUAGGCAGGAUAUCGUUUGCAAAGCAAACGAGAAGGGCCUAGGCACC [Mat - Same State NG 3 - JL Mod - D62] (Eterna round: R96, puzzle: Same State NG 3) | – | – | – | 19.1 | 18.5 | 35.2 |
| GGUGCCAAAUAAGCCUACAUGAGGAUCACCCAUGUAUGUAGGUAGGAUAUCGUAUGCAAAGCAUACGAGAAGGGCCUAGGCACC [Mat - Same State NG 3 - JL Mod - D60] (Eterna round: R96, puzzle: Same State NG 3) | – | – | – | 18.1 | 37.3 | 60.7 |
| GGUGCCAAUAAAGCCUACAUGAGGAUCACCCAUGUAUGUAGGCAGGAUAUCGUUUGCUUUGCAAACGAGAAGGGCCUAGGCACC [JL SSNG3 1.21] (Eterna round: R96, puzzle: Same State NG 3) | – | – | – | 16.3 | 24.3 | 29.8 |
| GGUGCGAAUAAAGCCUACAUGAGGAUCACCCAUGUAUGUAGGCAGGAUAUCGUUUGCUUUGCAAACGAGAAGGGCUGACGCACC [JL SSNG3 1.17] (Eterna round: R96, puzzle: Same State NG 3) | – | – | – | 27.4 | 37.7 | 63.6 |
| GGUGGGUUGCUGCCGGCACAUGAGGAUCACCCAUGUUUUGGGAAGGAUAUGGUACCUCUUUGGUGCCAGAAGGUCCCGUUGGUG [salish99_SSNG3_r04_713] (Eterna round: R96, puzzle: Same State NG 3) | – | – | – | 2020 | 503 | 1740 |
| GUAAAACAUGAGGAUCACCCAUGUAAUAAUAUGGGAGGAUAUCAGAAUGUAUGUAUGUAAUGAGAAGGCCUAAAUG [Mat - Same State 1 - Mod of Eli - D74] (puzzle: Same State 1) | 101 | 1610 | 1120 | – | – | – |
| GUAAGGCAAGCUUUUUUCUCGUAGUGUAAACAUGAGGAUCACCCAUGUGCUCGCCCUGGAUCUUUGAAUCGCAGAAA [Ritiorreon] (puzzle: Sensor for hsa-mir-208a) | 44.9 | 23.1 | 49.5 | – | – | – |
| GUACAGAUUAUAGGAUAUCACGUCGAUUAGACGUGAGAAGGAUAAUCCCACAUGAAUAUUAAUACAUGAGGAUCACCCAUGUAC [SSNG1/18-B2] (Eterna round: R96, puzzle: Same State NG 1) | – | – | – | 24.2 | 22 | 30.5 |
| GUACAUAUCGUAGGAUAUCACGUCGAAUAGACGUGAGAAGGACGGUCCCACAUGAAUAUUAAUACAUGAGGAUCACCCAUGUAC [MOD SSNG 1/18-A1 by Brourd] (Eterna round: R96, puzzle: Same State NG 1) | – | – | – | 92.5 | 41.8 | 43 |
